Data published in FireProtDB (doi:10.1021/bi060038+).

Conditions: pH 7, CD, sodium phosphate 10 mM, reversible: Yes, whole UniProt chain shown; for denaturant m value / unfolding free energy: 25 °C; for Tm / unfolding enthalpy (van 't Hoff): Thermal
[1] = Bacillus subtilis (strain 168), GdnHCl
[2] = Bacillus subtilis (strain 168), Urea
[3] = Geobacillus stearothermophilus, GdnHCl
[4] = Geobacillus stearothermophilus, Urea
[5] = Halalkalibacterium halodurans (strain ATCC BAA-125 / DSM 18197 / FERM 7344 / JCM 9153 / C-125), GdnHCl
[6] = Halalkalibacterium halodurans (strain ATCC BAA-125 / DSM 18197 / FERM 7344 / JCM 9153 / C-125), Urea
[7] = Halalkalibacterium halodurans (strain ATCC BAA-125 / DSM 18197 / FERM 7344 / JCM 9153 / C-125)
[8] = Oceanobacillus iheyensis (strain DSM 14371 / CIP 107618 / JCM 11309 / KCTC 3954 / HTE831), GdnHCl
[9] = Oceanobacillus iheyensis (strain DSM 14371 / CIP 107618 / JCM 11309 / KCTC 3954 / HTE831), Urea
[10] = Oceanobacillus iheyensis (strain DSM 14371 / CIP 107618 / JCM 11309 / KCTC 3954 / HTE831)
[11] = Streptococcus thermophilus, GdnHCl
[12] = Streptococcus thermophilus, Urea

B1: Phosphocarrier protein HPr wild type, P08877 (protein)
chain: MAQKTFKVTADSGIHARPATVLVQTASKYDADVNLEYNGKTVNLKSIMGVMSLGIAKGAEITISASGADENDALNALEETMKSEGLGE
B1 showed a denaturant m value [1] of 3.28 kcal/mol/M, an unfolding free energy [1] of 3.4 kcal/mol and a denaturant m value [2] of 1.08 kcal/mol/M. For the same protein, the unfolding free energy [2] was 5 kcal/mol, the Tm (Bacillus subtilis (strain 168)) was 73 °C and the “unfolding enthalpy (van 't Hoff)” value (Bacillus subtilis (strain 168)) was 77 kcal/mol.

B2: Phosphocarrier protein HPr wild type, P42013 (protein)
chain: MAEKTFKVVSDSGIHARPATILVQTASKFNSEIQLEYNGKTVNLKSIMGVMSLGIPKGATIKITAEGADAAEAMAALTDTLAKEGLAE
With B2 the denaturant m value [3] was 2.43 kcal/mol/M, the unfolding free energy [3] was 6.7 kcal/mol and the denaturant m value [4] was 0.98 kcal/mol/M. For the same protein, the unfolding free energy [4] was 8.2 kcal/mol, the Tm (Geobacillus stearothermophilus) was 88.3 °C and the “unfolding enthalpy (van 't Hoff)” value (Geobacillus stearothermophilus) was 99 kcal/mol.

B3: Phosphocarrier protein HPr wild type, Q9K8D2 (protein)
chain: MAEKTFTITAETGIHARPATQLVNKAGQYSSEITLEYKGKAVNLKSIMGVMSLGVGKGAQVTIKAEGSDEAEALKGIEEVIKEGLGE
B3 showed a denaturant m value [5] of 2.36 kcal/mol/M, an unfolding free energy [5] of 5.3 kcal/mol and a denaturant m value [6] of 0.9 kcal/mol/M. The unfolding free energy [6] was 6.8 kcal/mol, the Tm [7] was 82.3 °C and the “unfolding enthalpy (van 't Hoff)” value [7] was 87 kcal/mol.

B4: Phosphocarrier protein HPr wild type, Q8ENY1 (protein)
chain: MKSQTFTITAETGVHARPATLLVNKAGQFDSEIEVSYKGKQVNLKSIMGVMSLGIPKGAEIEVSADGKDEEDALNGVAEVIKEHLGE
B4 gave a denaturant m value [8] of 2.56 kcal/mol/M, an unfolding free energy [8] of 1.4 kcal/mol and a denaturant m value [9] of 1.27 kcal/mol/M. The unfolding free energy [9] was 3.4 kcal/mol, the Tm [10] was 58 °C and the “unfolding enthalpy (van 't Hoff)” value [10] was 59 kcal/mol.

B5: Phosphocarrier protein HPr wild type, Q8VP89 (protein)
chain: MASKDFHIVAETGIHARPATLLVQTASKFASDITLEYKGKAVNLKSIMGVMSLGVGQGADVTISAEGPDADDAIAAIAETMTKEGLA
Work on B5 yielded a denaturant m value [11] of 2.75 kcal/mol/M, an unfolding free energy [11] of 5.4 kcal/mol and a denaturant m value [12] of 0.86 kcal/mol/M. The unfolding free energy [12] was 6.3 kcal/mol.
